Measured values taken from publication PMC8142254, “The mycobacterial proteasomal ATPase Mpa forms a gapped ring to engage the 20S proteasome” (The Journal of Biological Chemistry, 2021).

What was measured:
[1] = molecular target: Mycobacterium tuberculosis proteasomal ATPase Mpa, full-length (1–609) (Mycobacterium tuberculosis) (UniProt P9WQN5); assay: not stated; stoichiometry of the in vitro assembled Pup–FabD:Mpa complex; how it was found is not told
cryo-EM structure = molecular target: the molecule itself; assay: cryo-EM structure

## Pup–FabD (Pup translationally fused to the N terminus of malonyl CoA-acyl carrier protein transacylase)
[1]
  stoichiometry N (Pup–FabD per Mpa hexamer): 1

B1: Mycobacterium tuberculosis proteasomal ATPase Mpa, full-length (1–609) (enzyme)
chain: MGESERSEAFGIPRDSPLSSGDAAELEQLRREAAVLREQLENAVGSHAPTRSARDIHQLEARIDSLAARNSKLMETLKEARQQLLALREEVDRLGQPPSGYGVLLATHDDDTVDVFTSGRKMRLTCSPNIDAASLKKGQTVRLNEALTVVEAGTFEAVGEISTLREILADGHRALVVGHADEERVVWLADPLIAEDLPDGLPEALNDDTRPRKLRPGDSLLVDTKAGYAFERIPKAEVEDLVLEEVPDVSYADIGGLSRQIEQIRDAVELPFLHKELYREYSLRPPKGVLLYGPPGCGKTLIAKAVANSLAKKMAEVRGDDAHEAKSYFLNIKGPELLNKFVGETERHIRLIFQRAREKASEGTPVIVFFDEMDSIFRTRGTGVSSDVETTVVPQLLSEIDGVEGLENVIVIGASNREDMIDPAILRPGRLDVKIKIERPDAEAAQDIYSKYLTEFLPVHADDLAEFDGDRSACIKAMIEKVVDRMYAEIDDNRFLEVTYANGDKEVMYFKDFNSGAMIQNVVDRAKKNAIKSVLETGQPGLRIQHLLDSIVDEFAENEDLPNTTNPDDWARISGKKGERIVYIRTLVTGKSSSASRAIDTESNLGQYL
notes: Mpa (mycobacterial proteasome ATPase), Mycobacterium tuberculosis, full-length, residues 1-609; Homohexamer; In the cryo-EM model the coiled-coil domains and two of the six AAA domains are not resolved; also called mycobacterial proteasome ATPase; WT Mpa
cryo-EM structure
  stoichiometry N: 6
